Source: article PMC3461516 (The Journal of Cell Biology, 2012)

Molecular target: His6-Mad2 (recombinant human Mad2) (human, UniProt Q13257 1-205)
Test: pull-down

His6-Mad2 (recombinant human Mad2), sequence (Q13257 whole entry): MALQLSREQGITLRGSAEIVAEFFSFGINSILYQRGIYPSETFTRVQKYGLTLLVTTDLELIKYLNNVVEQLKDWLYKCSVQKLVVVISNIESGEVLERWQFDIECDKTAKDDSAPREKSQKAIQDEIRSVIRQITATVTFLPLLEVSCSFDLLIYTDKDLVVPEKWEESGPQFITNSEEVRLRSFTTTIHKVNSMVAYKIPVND

B1: GST-Cdc20^N151 (first 151 amino acids of human Cdc20), wild type (domain or fragment)
chain: MAQFAFESDLHSLLQLDAPIPNAPPARWQRKAKEAAGPAPSPMRAANRSHSAGRTPGRTPGKSSSKVQTTPSKPGGDRYIPHRSAAQMEVASFLLSKENQPENSQTPTKKEHQKAWALNLNGFDVEEAKILRLSGKPQNAPEGYQNRLKVL
B1: binds.
